Holding throughout (details): pH 6; 37 °C
Substrate in data set [1]: p-NP-C2
Substrate in data set [2]: p-NP-C4
Substrate in data set [3]: p-NP-C6
Substrate in data set [4]: p-NP-C8

B1: unnamed (protein)
chain: MSVTTPRRETSLLSRALRATAAAATAVVATVALAAPAQAANPYERGPNPTESMLEARSGPFSVSEERASRFGADGFGGGTIYYPRENNTYGAIAISPGYTGTQSSIAWLGERIASHGFVVIAIDTNTTLDQPDSRARQLNAALDYMLTDASSAVRNRIDASRLAVMGHSMGGGGTLRLASQRPDLKAAIPLTPWHLNKSWRDITVPTLIIGAEYDTIASVTLHSKPFYNSIPSPTDKAYLELDGASHFAPNITNKTIGMYSVAWLKRFVDEDTRYTQFLCPGPRTGLLSDVEEYRSTCPF
A word on the Km: it is the concentration of substrate that gives half-maximal velocity. What is called kcat is the number of substrate molecules converted per active site and unit of time at saturation. For orientation: kcat/Km means the second-order rate constant that governs catalysis at low substrate concentration. As to B1, the Km was determined as 3.22 mM in data set [1], 3.41 mM in data set [2], 2.37 mM in data set [3] and 1.87 mM in data set [4]. Also, the kcat was 2.06 s⁻¹ in data set [1], 4.48 s⁻¹ in data set [2], 3.28 s⁻¹ in data set [3] and 2.45 s⁻¹ in data set [4]. Moreover, the kcat/Km in data set [1] was determined as 640 s⁻¹ M⁻¹; in data set [2] it was 1310 s⁻¹ M⁻¹; in data set [3], 1380 s⁻¹ M⁻¹; in data set [4], 1310 s⁻¹ M⁻¹.

(Values after the PETadex activity labels (doi:10.1007/s00253-011-3781-6).)
